Results from patent US20200207850A1 (MacroGenics, published 2020).

Assays:
[1] = biological target: T1, B7-H3 on A498 and JIMT-1 target cells (UniProt Q5ZPR3 29-534, limits assumed); test: cell-based or functional assay
T1 sequence (looked up): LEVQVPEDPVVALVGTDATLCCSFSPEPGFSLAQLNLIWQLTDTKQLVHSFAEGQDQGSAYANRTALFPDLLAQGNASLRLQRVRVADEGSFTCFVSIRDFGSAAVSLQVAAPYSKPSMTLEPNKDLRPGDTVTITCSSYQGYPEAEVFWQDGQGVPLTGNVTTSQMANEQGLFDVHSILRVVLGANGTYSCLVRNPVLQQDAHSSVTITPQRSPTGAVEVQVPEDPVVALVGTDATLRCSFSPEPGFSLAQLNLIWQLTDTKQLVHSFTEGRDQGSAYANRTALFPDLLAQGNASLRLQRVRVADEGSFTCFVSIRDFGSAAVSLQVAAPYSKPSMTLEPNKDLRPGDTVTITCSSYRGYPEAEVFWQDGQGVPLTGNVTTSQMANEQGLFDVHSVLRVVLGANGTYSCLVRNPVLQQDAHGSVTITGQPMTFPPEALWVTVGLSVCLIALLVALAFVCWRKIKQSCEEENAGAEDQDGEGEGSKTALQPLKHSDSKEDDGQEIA

[2] = biological target: T2, CD8 on human T cells (PBMC) (human, UniProt P01732 22-235); test: flow cytometry, binding to human CD5+/CD4- cells (bear CD8 and CD3) (MFI)
T2 construct: whole, on cells; The CD8+ (CD5+ CD4-) cells also carry CD3; also called CD5+ CD4- gated PBMC; CD8+ T cells
T2 sequence (P01732 22-235): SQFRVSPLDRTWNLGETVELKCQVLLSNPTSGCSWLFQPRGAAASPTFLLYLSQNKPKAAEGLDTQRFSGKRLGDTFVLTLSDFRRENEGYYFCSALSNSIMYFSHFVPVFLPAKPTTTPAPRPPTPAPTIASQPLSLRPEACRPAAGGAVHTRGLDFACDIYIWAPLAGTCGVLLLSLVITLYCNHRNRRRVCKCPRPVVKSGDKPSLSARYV

[3] = biological target: T2, CD8 on human T cells (PBMC); test: flow cytometry on human PBMC, CD5+/CD4- gated cells (bear CD8 and CD3), detection anti-human Fc (MFI)
[4] = biological target: T3, 5T4 on JIMT-1 target cells (UniProt Q13641 32-420, limits assumed); test: cell-based or functional assay
T3 sequence (looked up): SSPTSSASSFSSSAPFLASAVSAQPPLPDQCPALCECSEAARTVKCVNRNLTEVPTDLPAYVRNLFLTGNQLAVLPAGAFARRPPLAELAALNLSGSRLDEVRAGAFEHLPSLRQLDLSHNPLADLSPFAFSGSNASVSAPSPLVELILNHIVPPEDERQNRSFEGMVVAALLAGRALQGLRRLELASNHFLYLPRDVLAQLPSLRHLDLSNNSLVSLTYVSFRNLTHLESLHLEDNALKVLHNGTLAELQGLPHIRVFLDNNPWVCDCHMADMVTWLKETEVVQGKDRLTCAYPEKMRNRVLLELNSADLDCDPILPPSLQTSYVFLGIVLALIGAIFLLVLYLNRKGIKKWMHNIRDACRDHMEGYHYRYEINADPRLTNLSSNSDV

[5] = biological target: HIV env on Jurkat 522 FY cells (HIV); test: cell-based or functional assay
[6] = biological target: HIV env on Jurkat 522 FY cells (HIV); test: cell-based or functional assay; remark: listed apart in the source
[7] = biological target: T2, CD8 on human T cells (PBMC); test: flow cytometry on human PBMC, CD5+/CD4- gated cells (bear CD8 and CD3), detection anti-human Fc (MFI); remark: listed apart in the source
Description: Human blood was lysed with ACK lysing buffer, washed 2× with PBS and re-suspended in FACS buffer contained 10% Human AB serum and incubated at room temperature for 20 minutes. Thereafter, the cells were pelleted by centrifugation and re-suspended (4×10⁶ cells/mL) in FACS buffer. 50 μL of serial titrated Tri-Specific Binding Molecules were added into wells of a 96-well deep plate. 50 μL of the cells (4×10⁶ cells/mL) well-mixed cells in FACS buffer containing 0.01% sodium azide were then added into corresponding wells and mixed thoroughly using a pipette. The plate was incubated in the dark for about 45 minutes at 2-8° C. At the end of incubation, the cells were washed twice by adding 300 μL of FACS buffer to each well, the plate was centrifuged at 1,200 rpm for 5 minutes, and the supernatant was discarded. The cell pellets were re-suspended in 100 μL mixture of goat anti-Human IgG Fcγ-PE, CD5-APC and CD4-PerCP5.5 prepared in FACS buffer containing 0.01% sodium azide, and the cells were incubated in the dark for about 45 minutes at 2-8° C. At the end of the incubation, the cells were washed, re-suspended with FACS buffer, and analyzed with a BD Caliber flow cytometer.

B1: CD3 mAb 2/CD8 mAb 1/B7-H3 mAb 1 Tri-Specific Binding Molecule (other)
chain 1: DVQINQSPSFLAASPGETITINCRTSRSISQYLAWYQEKPGKTNKLLIYSGSTLQSGIPSRFSGSGSGTDFTLTISGLEPEDFAMYYCQQHNENPLTFGAGTKLELRGGGSGGGGEVQLVESGGGLVQPGGSLRLSCAASGFTFSTYAMNWVRQAPGKGLEWVGRIRSKYNNYATYYADSVKGRFTISRDDSKNSLYLQMNSLKTEDTAVYYCVRHGNFGNSYVSWFAYWGQGTLVTVSSGGCGGGEVAALEKEVAALEKEVAALEKEVAALEKGGGDKTHTCPPCPAPEAAGGPSVFLFPPKPKDTLMISRTPEVTCVVVDVSHEDPEVKFNWYVDGVEVHNAKTKPREEQYNSTYRVVSVLTVLHQDWLNGKEYKCKVSNKALPAPIEKTISKAKGQPREPQVYTLPPSREEMTKNQVSLWCLVKGFYPSDIAVEWESNGQPENNYKTTPPVLDSDGSFFLYSKLTVDKSRWQQGNVFSCSVMHEALHNHYTQKSLSLSPGK
chain 2: QAVVTQEPSLTVSPGGTVTLTCRSSTGAVTTSNYANWVQQKPGQAPRGLIGGTNKRAPWTPARFSGSLLGGKAALTITGAQAEDEADYYCALWYSNLWVFGGGTKLTVLGGGGSGGGGEVQLQQSGAELVKPGASVKLSCTASGFNIKDTYIHFVRQRPEQGLEWIGRIDPANDNTLYASKFQGKATITADTSSNTAYMHLCSLTSGDTAVYYCGRGYGYYVFDHWGQGTTLTVSSGGCGGGKVAALKEKVAALKEKVAALKEKVAALKE
heavy: QVQLVQSGAEVKKPGASVKVSCKASGYTFTSYWMQWVRQAPGQGLEWMGTIYPGDGDTRYTQKFKGRVTITADKSTSTAYMELSSLRSEDTAVYYCARRGIPRLWYFDVWGQGTTVTVSSASTKGPSVFPLAPSSKSTSGGTAALGCLVKDYFPEPVTVSWNSGALTSGVHTFPAVLQSSGLYSLSSVVTVPSSSLGTQTYICNVNHKPSNTKVDKRVEPKSCDKTHTCPPCPAPEAAGGPSVFLFPPKPKDTLMISRTPEVTCVVVDVSHEDPEVKFNWYVDGVEVHNAKTKPREEQYNSTYRVVSVLTVLHQDWLNGKEYKCKVSNKALPAPIEKTISKAKGQPREPQVYTLPPSREEMTKNQVSLSCAVKGFYPSDIAVEWESNGQPENNYKTTPPVLDSDGSFFLVSKLTVDKSRWQQGNVFSCSVMHEALHNRYTQKSLSLSPGK
light: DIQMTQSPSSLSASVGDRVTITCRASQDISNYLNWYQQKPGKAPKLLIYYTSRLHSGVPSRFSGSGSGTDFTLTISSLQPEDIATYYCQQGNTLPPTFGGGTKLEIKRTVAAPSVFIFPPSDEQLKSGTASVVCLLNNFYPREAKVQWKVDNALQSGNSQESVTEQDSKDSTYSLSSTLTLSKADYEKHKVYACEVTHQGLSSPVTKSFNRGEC
notes: Site A CD3, Site B CD8, Site C B7-H3
[1]
  EC50 (nM) of killing, CD4+ effector cells, JIMT1-luc target cells, E:T 5:1: 0.105 nM
  EC50 (nM) of killing, CD8+ effector cells, JIMT1-luc target cells, E:T 5:1: 0.0053 nM
  EC50 (nM) of killing, PanT effector cells, JIMT1-luc target cells, E:T 5:1: 0.0113 nM
[2]
  EC50 (read off the curve): ~2000 pM

B2: 5T4 mAb 2/CD3 mAb 2/CD8 mAb 1 Tri-Specific Binding Molecule (other)
chain 1: DVLMTQTPLSLPVSLGDQASISCRSSQSIVYSNGNTYLEWYLQKPGQSPKLLIYKVSNRFSGVPDRFSGSGSGTDFTLKISRVEAEDLGVYYCFQGSHVPFTFGSGTKLEIKGGGSGGGGEVQLVESGGGLVQPGGSLRLSCAASGFTFSTYAMNWVRQAPGKGLEWVGRIRSKYNNYATYYADSVKGRFTISRDDSKNSLYLQMNSLKTEDTAVYYCVRHGNFGNSYVSWFAYWGQGTLVTVSSGGCGGGEVAALEKEVAALEKEVAALEKEVAALEKGGGDKTHTCPPCPAPEAAGGPSVFLFPPKPKDTLMISRTPEVTCVVVDVSHEDPEVKFNWYVDGVEVHNAKTKPREEQYNSTYRVVSVLTVLHQDWLNGKEYKCKVSNKALPAPIEKTISKAKGQPREPQVYTLPPSREEMTKNQVSLWCLVKGFYPSDIAVEWESNGQPENNYKTTPPVLDSDGSFFLYSKLTVDKSRWQQGNVFSCSVMHEALHNHYTQKSLSLSPGK
chain 2: QAVVTQEPSLTVSPGGTVTLTCRSSTGAVTTSNYANWVQQKPGQAPRGLIGGTNKRAPWTPARFSGSLLGGKAALTITGAQAEDEADYYCALWYSNLWVFGGGTKLTVLGGGGSGGGGQVQLQQPGAELVKPGASVKMSCKASGYTFTSYWITWVKQRPGQGLEWIGDIYPGSGRANYNEKFKSKATLTVDTSSSTAYMQLSSLTSEDSAVYNCARYGPLFTTVVDPNSYAMDYWGQGTSVTVSSGGCGGGKVAALKEKVAALKEKVAALKEKVAALKE
heavy: EVQLQQSGAELVKPGASVKLSCTASGFNIKDTYIHFVRQRPEQGLEWIGRIDPANDNTLYASKFQGKATITADTSSNTAYMHLCSLTSGDTAVYYCGRGYGYYVFDHWGQGTTLTVSSASTKGPSVFPLAPSSKSTSGGTAALGCLVKDYFPEPVTVSWNSGALTSGVHTFPAVLQSSGLYSLSSVVTVPSSSLGTQTYICNVNHKPSNTKVDKRVEPKSCDKTHTCPPCPAPEAAGGPSVFLFPPKPKDTLMISRTPEVTCVVVDVSHEDPEVKFNWYVDGVEVHNAKTKPREEQYNSTYRVVSVLTVLHQDWLNGKEYKCKVSNKALPAPIEKTISKAKGQPREPQVYTLPPSREEMTKNQVSLSCAVKGFYPSDIAVEWESNGQPENNYKTTPPVLDSDGSFFLVSKLTVDKSRWQQGNVFSCSVMHEALHNRYTQKSLSLSPGK
light: DVQINQSPSFLAASPGETITINCRTSRSISQYLAWYQEKPGKTNKLLIYSGSTLQSGIPSRFSGSGSGTDFTLTISGLEPEDFAMYYCQQHNENPLTFGAGTKLELRRTVAAPSVFIFPPSDEQLKSGTASVVCLLNNFYPREAKVQWKVDNALQSGNSQESVTEQDSKDSTYSLSSTLTLSKADYEKHKVYACEVTHQGLSSPVTKSFNRGEC
[3]
  EC50 (read off the curve): ~2000 pM
[4]
  EC50 (nM) of killing, CD4+ effector cells, JIMT1-luc target cells, E:T 5:1: 0.0435 nM
  EC50 (nM) of killing, CD8+ effector cells, JIMT1-luc target cells, E:T 5:1: 0.0013 nM
  EC50 (nM) of killing, PanT effector cells, JIMT1-luc target cells, E:T 5:1: 0.002 nM

B3: 5T4 mAb 2/CD3 mAb 2/CD8 mAb 2 Tri-Specific Binding Molecule (other)
chain 1: B2 chain 1
chain 2: B2 chain 2
heavy: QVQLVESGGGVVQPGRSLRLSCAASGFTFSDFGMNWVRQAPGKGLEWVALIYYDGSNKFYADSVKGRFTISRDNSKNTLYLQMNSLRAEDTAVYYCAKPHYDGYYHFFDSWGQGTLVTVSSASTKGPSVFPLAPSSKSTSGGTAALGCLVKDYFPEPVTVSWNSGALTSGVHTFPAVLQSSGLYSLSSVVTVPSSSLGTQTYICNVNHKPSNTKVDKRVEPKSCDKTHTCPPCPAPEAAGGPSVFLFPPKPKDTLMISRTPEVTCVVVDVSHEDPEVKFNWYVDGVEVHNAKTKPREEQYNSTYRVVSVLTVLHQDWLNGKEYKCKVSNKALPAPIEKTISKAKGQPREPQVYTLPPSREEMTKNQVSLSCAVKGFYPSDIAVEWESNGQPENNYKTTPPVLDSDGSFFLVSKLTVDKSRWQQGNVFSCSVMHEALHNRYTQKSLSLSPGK
light: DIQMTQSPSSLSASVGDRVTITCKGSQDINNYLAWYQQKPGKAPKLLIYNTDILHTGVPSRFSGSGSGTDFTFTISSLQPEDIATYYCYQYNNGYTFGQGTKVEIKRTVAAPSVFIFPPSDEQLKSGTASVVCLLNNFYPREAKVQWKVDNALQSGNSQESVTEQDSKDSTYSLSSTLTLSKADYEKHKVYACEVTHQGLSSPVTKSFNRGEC
[3]
  EC50 (read off the curve): ~2000 pM
[4]
  EC50 (nM) of killing, CD4+ effector cells, JIMT1-luc target cells, E:T 5:1: 0.0336 nM
  EC50 (nM) of killing, CD8+ effector cells, JIMT1-luc target cells, E:T 5:1: 0.0015 nM
  EC50 (nM) of killing, PanT effector cells, JIMT1-luc target cells, E:T 5:1: 0.0018 nM

B4: HIV mAb 1/CD3 mAb 2/CD8 mAb 1 Tri-Specific Binding Molecule (other)
chain 1: DIVMTQSPDSLAVSPGERATIHCKSSQTLLYSSNNRHSIAWYQQRPGQPPKLLLYWASMRLSGVPDRFSGSGSGTDFTLTINNLQAEDVAIYYCHQYSSHPPTFGHGTRVEIKGGGSGGGGEVQLVESGGGLVQPGGSLRLSCAASGFTFSTYAMNWVRQAPGKGLEWVGRIRSKYNNYATYYADSVKGRFTISRDDSKNSLYLQMNSLKTEDTAVYYCVRHGNFGNSYVSWFAYWGQGTLVTVSSASTKGEVAACEKEVAALEKEVAALEKEVAALEKGGGDKTHTCPPCPAPEAAGGPSVFLFPPKPKDTLMISRTPEVTCVVVDVSHEDPEVKFNWYVDGVEVHNAKTKPREEQYNSTYRVVSVLTVLHQDWLNGKEYKCKVSNKALPAPIEKTISKAKGQPREPQVYTLPPSREEMTKNQVSLWCLVKGFYPSDIAVEWESNGQPENNYKTTPPVLDSDGSFFLYSKLTVDKSRWQQGNVFSCSVMHEALHNHYTQKSLSLSPGK
chain 2: QAVVTQEPSLTVSPGGTVTLTCRSSTGAVTTSNYANWVQQKPGQAPRGLIGGTNKRAPWTPARFSGSLLGGKAALTITGAQAEDEADYYCALWYSNLWVFGGGTKLTVLGGGGSGGGGQVQLVQSGGGVFKPGGSLRLSCEASGFTFTEYYMTWVRQAPGKGLEWLAYISKNGEYSKYSPSSNGRFTISRDNAKNSVFLQLDRLSADDTAVYYCARADGLTYFSELLQYIFDLWGQGARVTVSSASTKGKVAACKEKVAALKEKVAALKEKVAALKE
heavy: EVQLQQSGAELVKPGASVKLSCTASGFNIKDTYIHFVRQRPEQGLEWIGRIDPANDNTLYASKFQGKATITADTSSNTAYMHLCSLTSGDTAVYYCGRGYGYYVFDHWGQGTTLTVSSASTKGPSVFPLAPSSKSTSGGTAALGCLVKDYFPEPVTVSWNSGALTSGVHTFPAVLQSSGLYSLSSVVTVPSSSLGTQTYICNVNHKPSNTKVDKRVEPKSCDKTHTCPPCPAPEAAGGPSVFLFPPKPKDTLMISRTPEVTCVVVDVSHEDPEVKFNWYVDGVEVHNAKTKPREEQYNSTYRVVSVLTVLHQDWLNGKEYKCKVSNKALPAPIEKTISKAKGQPREPQVYTLPPSREEMTKNQVSLSCAVKGFYPSDIAVEWESNGQPENNYKTTPPVLDSDGSFFLVSKLTVDKSRWQQGNVFSCSVMHEALHNRYTQKSLSLSPG
light: B2 light
[5]
  EC50, nM, % cytotoxicity (LDH), Jurkat Cells 522FY, CD4 effector cells: 0.36 nM
  EC50, nM, % cytotoxicity (LDH), Jurkat Cells 522FY, CD8 effector cells: 0.00781 nM
  EC50, nM, % cytotoxicity (LDH), Jurkat Cells 522FY, Pan T effector cells: 0.044 nM
[6]
  EC50 nM, % cytotoxicity (LDH), Jurkat Cells 522FY, E/T = 5:1: 0.00019 nM
  EC50 nM, % cytotoxicity (LDH), Jurkat Cells 522FY, E/T = 10:1: 0.00029 nM
[7]
  EC50 (read off the curve): ~800 pM
